For test [1], the target named is recombinant S-ECD of SARS-CoV (Severe acute respiratory syndrome …, UniProt P59594). Put plainly: cell-based or functional assay.
In test [2] the target is T1, Avi-tagged SARS-CoV-2 RBD, biotinylated (Severe acute respiratory syndrome …, UniProt P0DTC2, biotin (BirA biotinylation of the Avi tag)).
T1 construct: also called biotinylated RBD protein of SARS-CoV-2
Put plainly: BLI. As to conditions: both partners purified.

Test [3] deals with recombinant SARS-CoV-2 RBD protein (wild type) (SARS-CoV-2, UniProt P0DTC2). Put plainly: ELISA. Particulars: both partners purified.

B1: XG014 monoclonal antibody (IgG) (antibody, V domains shown)
VH: EVQLVQSGAEVKKPGESLKISCKGSGYSFSNYWIGWVRHMPGKGLEWMGIIYPGDSDTRYSPSFQGQVTISVDTSISTAYLQWSSLKASDTAMYYCTRHQYGYNYGYFYYYIDVWGKGTTVTVSS
VL: QSVLTQPPSVSAAPGQKVTISCSGSSSNIGNNPVSWYRQVPGTAPKLLIYDNNKRPSGIPDRFSGSKSGASATLGITGLQTGDEADYYCGTWHTSLSSGVFGGGTKLTVL
By Kd is commonly meant the constant that tells how readily two partners part at equilibrium. A lower Kd goes with a tighter complex. Consider B1, for which the “IC50 of neutralisation of SARS-CoV pseudovirus in Huh-7 cells” value in test [1] turned out to be 0.016 µg/mL. Besides, the equilibrium dissociation constant (Kd) in test [2] was less than 1 pM.

B2: XG005 monoclonal antibody (IgG) (antibody, V domains shown)
VH: QVTLRESGPTLVKPKQTLTLTCTFSGFSLSTPGGGVGWIRQPPGKALEWLALIYWDDDKRYSPSLKSSLTITKDTSKNQVVLTMTNMDPVDTATYYCARLTAADTIFDCWGQGTLVTVSS
VL: QSALTQPASVSGSPGLSITISCTATSSDVGAYNYVSWYQQHPGQAPKLMIYDVSKRPSGVSNRFSGSKSANTASLTISGLQAEDEADYYCSSYTTTSVVFGGGTKLTVL
As for B2, the binding result in test [3] is given as “binds”.

(Values after publication PMC8458794 (Protein & Cell, 2021).)
